Source: patent EP1752538A1 (BAYER CORPORATION, dated 1997)
Like-named read-outs stand apart in the source and are kept apart here. Where no end group is shown, it is not given here.

Assays:
Bovine chymotrypsin = Bovine chymotrypsin (bovine, UniProt P00766 1-245); experiment: enzyme inhibition kinetics, chymotrypsin 5 nM
[1] = target: T1, bovine pancreatic kallikrein (bovine); experiment: enzyme inhibition kinetics, kallikrein 92.0 pM
T1 construct: also called immobilized bovine pancreatic kallikrein; kallikrein-sepharose

[2] = target: T2, bovine trypsin (type III) (bovine, UniProt P00760 24-246); experiment: enzyme inhibition kinetics, trypsin 48.5 pM
T2 construct: Active enzyme, active-site titrated

human plasmin [3] = target: T3, human plasmin (human, UniProt P00747 97-810); experiment: enzyme inhibition kinetics, plasmin 50 pM
T3 construct: Active enzyme

human tissue kallikrein = human tissue kallikrein (human, UniProt P06870 25-262); experiment: enzyme inhibition kinetics, tissue kallikrein 0.35 nM, PFR-AMC substrate
human factor Xa = human factor Xa (human, UniProt P00742 41-488, limits assumed); experiment: enzyme inhibition kinetics, factor Xa 0.87 nM
human plasmin [4] = target: T3, human plasmin; experiment: enzyme inhibition kinetics, plasmin 50 pM; remark: listed apart in the source
[5] = target: T4, tissue plasminogen activator (single chain form from human melanoma cell culture) (human, UniProt P00750 36-562, limits assumed); experiment: enzyme inhibition, tPA 7.5 nM, chromogenic pNA substrate
T4 construct: also called tPA

Factor XIa = target: T5, Factor XIa (Homo sapiens (Human), UniProt P03951 19-387; P03951 388-625, Activated enzyme cleaved after Arg387 of the precursor. The native molecule is a disulfide-linked homodimer of heavy-plu [CUT]); experiment: enzyme inhibition kinetics, factor XIa 0.1 nM
T5 construct: also called FXIa

[6] = target: T2, bovine trypsin (type III); experiment: enzyme inhibition kinetics, trypsin 48.5 pM; remark: listed apart in the source
human plasma kallikrein = target: T6, human plasma kallikrein (human, UniProt P03952 20-638); experiment: enzyme inhibition kinetics, kallikrein 2.5 nM
T6 construct: Active enzyme

[7] = target: T1, bovine pancreatic kallikrein; experiment: enzyme inhibition kinetics, kallikrein 100 pM
Tissue Factor VIIa = target: T7, Tissue Factor VIIa; experiment: enzyme inhibition
T7 construct: Complex of tissue factor and factor VIIa; no method is described for it; also called tissue factor VIIa complex

T2 sequence (P00760 24-246): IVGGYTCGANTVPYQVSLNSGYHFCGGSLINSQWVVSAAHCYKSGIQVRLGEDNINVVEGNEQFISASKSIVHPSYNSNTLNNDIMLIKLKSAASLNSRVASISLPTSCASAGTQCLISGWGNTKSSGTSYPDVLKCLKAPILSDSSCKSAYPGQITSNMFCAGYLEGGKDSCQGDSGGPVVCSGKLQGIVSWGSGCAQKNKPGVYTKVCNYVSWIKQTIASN
T3 sequence (P00747 97-810 limits assumed): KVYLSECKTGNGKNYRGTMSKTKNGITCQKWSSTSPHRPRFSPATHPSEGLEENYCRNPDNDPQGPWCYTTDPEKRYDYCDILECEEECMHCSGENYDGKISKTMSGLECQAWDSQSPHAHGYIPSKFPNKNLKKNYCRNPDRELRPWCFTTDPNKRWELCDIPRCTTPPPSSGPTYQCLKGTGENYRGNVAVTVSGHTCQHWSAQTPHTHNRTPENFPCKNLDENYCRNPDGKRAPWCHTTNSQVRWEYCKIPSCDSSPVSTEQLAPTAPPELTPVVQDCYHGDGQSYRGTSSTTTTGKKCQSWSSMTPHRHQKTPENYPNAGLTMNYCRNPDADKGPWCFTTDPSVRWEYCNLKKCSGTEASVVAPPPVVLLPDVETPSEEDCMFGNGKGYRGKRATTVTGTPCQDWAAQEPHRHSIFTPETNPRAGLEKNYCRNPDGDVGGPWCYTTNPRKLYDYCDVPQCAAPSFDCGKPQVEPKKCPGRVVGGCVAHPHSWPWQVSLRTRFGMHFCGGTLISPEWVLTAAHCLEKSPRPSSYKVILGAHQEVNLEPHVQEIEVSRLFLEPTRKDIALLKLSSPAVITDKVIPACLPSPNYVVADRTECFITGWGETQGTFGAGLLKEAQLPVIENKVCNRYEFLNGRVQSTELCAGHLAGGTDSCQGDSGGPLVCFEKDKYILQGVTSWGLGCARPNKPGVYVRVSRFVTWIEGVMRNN
T4 sequence (P00750 36-562 limits assumed): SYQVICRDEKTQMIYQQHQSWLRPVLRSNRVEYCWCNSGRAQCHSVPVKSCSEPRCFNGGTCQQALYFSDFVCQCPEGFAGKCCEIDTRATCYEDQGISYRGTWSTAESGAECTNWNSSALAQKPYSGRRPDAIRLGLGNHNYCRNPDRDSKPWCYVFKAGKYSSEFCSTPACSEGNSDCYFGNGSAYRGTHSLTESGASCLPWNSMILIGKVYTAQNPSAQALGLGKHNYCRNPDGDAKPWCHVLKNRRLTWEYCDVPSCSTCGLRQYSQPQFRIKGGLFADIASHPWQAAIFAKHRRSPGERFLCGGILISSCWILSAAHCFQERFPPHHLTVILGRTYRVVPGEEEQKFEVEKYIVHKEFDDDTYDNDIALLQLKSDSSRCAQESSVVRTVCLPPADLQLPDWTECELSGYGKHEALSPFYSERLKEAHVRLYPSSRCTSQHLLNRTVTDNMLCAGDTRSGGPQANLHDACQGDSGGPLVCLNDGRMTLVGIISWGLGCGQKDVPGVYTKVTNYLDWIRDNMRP
T6 sequence (P03952 20-638 limits assumed): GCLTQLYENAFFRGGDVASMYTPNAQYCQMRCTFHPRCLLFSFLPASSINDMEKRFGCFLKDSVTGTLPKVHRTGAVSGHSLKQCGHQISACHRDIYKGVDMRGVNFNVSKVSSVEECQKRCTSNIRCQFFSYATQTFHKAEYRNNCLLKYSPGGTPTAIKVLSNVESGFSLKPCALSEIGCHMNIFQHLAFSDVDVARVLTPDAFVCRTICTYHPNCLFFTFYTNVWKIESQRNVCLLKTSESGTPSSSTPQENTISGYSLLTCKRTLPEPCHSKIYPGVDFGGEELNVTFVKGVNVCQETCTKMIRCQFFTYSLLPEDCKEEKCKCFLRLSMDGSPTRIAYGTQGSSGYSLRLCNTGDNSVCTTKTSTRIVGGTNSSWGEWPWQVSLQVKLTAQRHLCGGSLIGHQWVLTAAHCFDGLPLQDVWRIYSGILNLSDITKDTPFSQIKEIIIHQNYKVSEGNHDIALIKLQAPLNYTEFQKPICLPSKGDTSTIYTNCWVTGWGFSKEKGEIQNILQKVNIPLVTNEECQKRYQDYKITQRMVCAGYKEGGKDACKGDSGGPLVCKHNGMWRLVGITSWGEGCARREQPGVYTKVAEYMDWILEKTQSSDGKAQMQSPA
Sequence of human tissue kallikrein (P06870 25-262 limits assumed): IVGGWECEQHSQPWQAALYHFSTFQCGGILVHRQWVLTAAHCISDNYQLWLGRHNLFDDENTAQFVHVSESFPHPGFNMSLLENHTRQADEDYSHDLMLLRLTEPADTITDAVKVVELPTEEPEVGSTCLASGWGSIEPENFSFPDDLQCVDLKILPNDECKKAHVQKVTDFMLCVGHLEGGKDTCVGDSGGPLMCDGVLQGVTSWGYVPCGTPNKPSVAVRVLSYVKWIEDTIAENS
T5 sequence (P03951 19-387 limits assumed, form in doubt, chain 1 of 2): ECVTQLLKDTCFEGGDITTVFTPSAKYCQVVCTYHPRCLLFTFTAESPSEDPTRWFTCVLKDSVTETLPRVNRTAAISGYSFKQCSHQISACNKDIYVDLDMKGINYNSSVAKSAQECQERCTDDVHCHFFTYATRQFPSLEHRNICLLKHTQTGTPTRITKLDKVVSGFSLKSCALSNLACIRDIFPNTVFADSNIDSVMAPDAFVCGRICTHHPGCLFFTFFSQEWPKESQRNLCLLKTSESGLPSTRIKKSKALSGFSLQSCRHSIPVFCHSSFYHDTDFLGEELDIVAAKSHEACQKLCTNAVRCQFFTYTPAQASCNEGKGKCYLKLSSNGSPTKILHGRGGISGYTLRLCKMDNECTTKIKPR
T5 sequence (P03951 388-625 limits assumed, form in doubt, chain 2 of 2): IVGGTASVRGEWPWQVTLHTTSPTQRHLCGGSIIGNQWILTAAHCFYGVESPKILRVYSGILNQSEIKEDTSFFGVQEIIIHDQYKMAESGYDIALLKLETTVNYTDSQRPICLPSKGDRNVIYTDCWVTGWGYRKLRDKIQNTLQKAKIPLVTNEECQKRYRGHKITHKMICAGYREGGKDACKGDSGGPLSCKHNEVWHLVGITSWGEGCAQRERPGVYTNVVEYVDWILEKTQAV

B1: synthetic placental bikunin (7-64), first preparation (other)
chain: IHDFCLVSKVVGRCRASMPRWWYNVTDGSCQLFVYGGCDGNSNNYLTKEECLKKCATV
modifications: ends and bridges not checked; also: may be incompletely deprotected before refolding
notes: also called placental bikunin fragment (7-64); KID1
Ki (Bovine chymotrypsin): 0.6 nM
Ki [1]: 0.4 nM

B2: native human placental bikunin isolated from human placenta (other)
chain: ADRERSIHDFCLVSKVVGRCRASMPRWWYNVTDGSCQLFVYGGCDGNSNNYLTKEECLKKCATVTENATGDLATSRNAADSSVPSAPRRQDSEDHSSDMFNYEEYCTANAVTGPCRASFPRWYFDVERNSCNNFIYGGCRGNKNSYRSEEACMLRCFRQQENPPLPLGSKVVVLAGAVS
modifications: asparagine 30 silent in sequencing, likely glycosylated
notes: Soluble protein purified from placenta; A minor species starts at residue 6; also called native Placental Bikunin (1-179)
Ki [2]: 0.13 nM
Ki (human plasmin [3]): 1.9 nM

B3: recombinant placental bikunin (1-170) from baculovirus / Sf9 cells (other)
chain: ADRERSIHDFCLVSKVVGRCRASMPRWWYNVTDGSCQLFVYGGCDGNSNNYLTKEECLKKCATVTENATGDLATSRNAADSSVPSAPRRQDSEDHSSDMFNYEEYCTANAVTGPCRASFPRWYFDVERNSCNNFIYGGCRGNKNSYRSEEACMLRCFRQQENPPLPLGSK
modifications: asparagine 30 silent in sequencing, consistent with glycosylation
notes: signal peptide correctly removed (N-terminus ADRER); also called Recombinant Bikunin; Sf9-derived human placental bikunin (1-170)
Ki (human tissue kallikrein): 0.04 nM
Ki (human factor Xa): 180 nM
Ki (human plasmin [4]): 0.23 nM
Ki [5]: < 60 nM
Ki (Factor XIa): 3 nM
Ki [6]: 0.064 nM
Ki (human plasma kallikrein): 0.18 nM
Ki [7]: 0.12 nM
Ki (Tissue Factor VIIa): 800 nM
